Test results reported in patent US20150111954, “LIN28/LET-7 CRYSTAL STRUCTURES, PURIFICATION PROTOCOLS, AND MOLECULAR PROBES SUITABLE FOR SCREENING ASSAYS AND THERAPEUTICS” (PRESIDENT AND FELLOWS OF HARVARD UNIVERSITY, published 2015).

Assays:
[1] = biological target: T1, Lin28a delta-delta (terminal truncations and 9-residue linker deletion) (Mus musculus, UniProt Q8K3Y3 SEQ:4-151); assay: EMSA; probe is a pre-let-7f-1 fragment; details: tags: His6 removed by TEV; domain-swapped dimer in crystal); label: 5'-32P
T1 chain: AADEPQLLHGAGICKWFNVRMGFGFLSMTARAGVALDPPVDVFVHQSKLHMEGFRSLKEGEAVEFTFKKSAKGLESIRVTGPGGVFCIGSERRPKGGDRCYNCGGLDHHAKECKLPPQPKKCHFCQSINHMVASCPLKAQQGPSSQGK

[2] = biological target: T1, Lin28a delta-delta (terminal …); assay: structure; crystal structure 2.9 A, Zn; details: tags: His6 removed by TEV; domain-swapped dimer in crystal); stem-loop with 3' single-stranded GGAG
Protocol: (§1) Crystals of all three complexes were produced by vapor diffusion, using the hanging drop method. Concentrated complexes (10 mg/mL) were mixed 1 μL:1 μL with reservoir solution, and crystals grew overnight. Reservoir solution contained 0.6M NaH₂PO₄, 1.4M K₂HPO₄ and 5% glycerol for preEM-let-7d and preEM-let-7f-1 complexes; for preEM-let-7g, it contained 0.1M Tris pH 8.0, 32% w/v PEG 4000, and 0.2M Sodium Acetate. Crystals were harvested with mother liquor supplemented with 20% glycerol and frozen in liquid nitrogen. Diffraction data was indexed and scaled using XDS (Kabsch, 2010) and SCALA (Evans, 2006) in a workflow provided by autoPROC (Vonrhein et al., 2011). Experimental phases were obtained for Lin28:pre-let-7d complex by anomalous scattering from zinc atoms (SAD), using HKL2MAP (Schneider and Sheldrick, 2002) and AutoSol (Terwilliger et al., 2009). The structures of Lin28: preEM-let-7f-1 and Lin28: preEM-let-7g were solved by molecular replacement with Lin28: preEM-let-7d as search model using Phaser (McCoy et al., 2007). Density modification and NCS averaging over 6 or 2 copies were performed with PHENIX (Adams et al., 2010) to obtain electron density maps for model building with COOT (Emsley and Cowtan, 2004) and PHENIX was used for further refinement. […]

[3] = biological target: T2, Lin28a (16-184), CSD-linker-CCHCx2 (Mus musculus, UniProt Q8K3Y3 SEQ:4-172); assay: EMSA; minimal preE, sufficient for high-affinity binding; complex also studied by NMR; details: tags: His6 removed by TEV (GSG remnant); stem-loop with 3' single-stranded GGAG
T2 chain: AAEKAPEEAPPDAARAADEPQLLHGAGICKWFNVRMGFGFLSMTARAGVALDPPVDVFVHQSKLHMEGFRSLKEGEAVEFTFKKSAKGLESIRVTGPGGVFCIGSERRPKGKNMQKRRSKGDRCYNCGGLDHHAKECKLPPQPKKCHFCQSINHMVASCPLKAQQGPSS

Lin28a = biological target: T3, Lin28a (Homo sapiens, UniProt Q9H9Z2 Q9H9Z2:2-209); assay: EMSA; effects of preEM point mutations equivalent to mouse Lin28a; details: stem-loop with 3' single-stranded GGAG
T3 sequence: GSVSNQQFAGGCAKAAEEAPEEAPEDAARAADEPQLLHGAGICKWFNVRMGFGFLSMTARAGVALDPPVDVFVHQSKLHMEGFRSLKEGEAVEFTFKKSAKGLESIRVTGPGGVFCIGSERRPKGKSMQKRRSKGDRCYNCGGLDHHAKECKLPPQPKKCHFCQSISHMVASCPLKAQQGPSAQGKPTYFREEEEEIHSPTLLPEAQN

Lin28b = biological target: T4, Lin28b (Homo sapiens, UniProt Q6ZN17 Q6ZN17:1-250); assay: as above; details: stem-loop with 3' single-stranded GGAG
T4 sequence: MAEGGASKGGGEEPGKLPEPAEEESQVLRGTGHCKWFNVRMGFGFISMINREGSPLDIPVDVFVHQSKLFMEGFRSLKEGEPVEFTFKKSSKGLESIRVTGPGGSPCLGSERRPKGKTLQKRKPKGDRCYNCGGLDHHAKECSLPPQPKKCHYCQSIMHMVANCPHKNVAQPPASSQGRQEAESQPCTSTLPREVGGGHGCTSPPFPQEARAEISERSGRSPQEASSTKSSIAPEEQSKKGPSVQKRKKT

[4] = biological target: T1, Lin28a delta-delta (terminal …); assay: structure; crystal structure 2.8 A, Zn; details: tags: His6 removed by TEV; domain-swapped dimer in crystal); stem-loop with 3' single-stranded GGAG
Protocol: as §1

[5] = biological target: T1, Lin28a delta-delta (terminal …); assay: EMSA; 9-residue linker deletion supports binding; slightly lower affinity than full-length suggested; details: tags: His6 removed by TEV; domain-swapped dimer in crystal); label: 5'-32P; stem-loop with 3' single-stranded GGAG
Description: FIG. 2. Linker between CSD and CCHCx2 is flexible. See also FIG. 9. (A) Longitudinal (R1) and transverse (R2) relaxation rates and the ratio (R2/R1), plotted against the residue number. Relatively more dynamic regions are marked with a light yellow box. (B) Alignment of internal deletions in the linker, indicated with the number of amino acids deleted on left (SEQ ID NOS 84-87, respectively, in order of appearance). (C) EMSAs with preE-let-7d as probe, mixed with increasing concentrations (0.005, 0.02, 0.08, 0.3, 1.2, 5, 20 μM) of linker deletion constructs of Lin28(16-184): *, free probe; **, complex. (D) Quantitative RT-PCR results for in vivo levels of mature let-7g. Lin28Δ is truncated at both N and C termini. Lin28ΔΔ has both of the terminal extensions and the linker removed. The standard deviation is calculated from triplicate experiments; U6 RNA levels were used for normalization. (E) and (F) Western blots of Trizol bottom layer for transfections shown in (D).

Lin28a full-length = biological target: T5, Lin28a full-length (Mus musculus, UniProt Q8K3Y3 Q8K3Y3:1-209); assay: EMSA; details: tags: His6 removed by TEV; label: 5'-32P; stem-loop with 3' single-stranded GGAG
T5 sequence: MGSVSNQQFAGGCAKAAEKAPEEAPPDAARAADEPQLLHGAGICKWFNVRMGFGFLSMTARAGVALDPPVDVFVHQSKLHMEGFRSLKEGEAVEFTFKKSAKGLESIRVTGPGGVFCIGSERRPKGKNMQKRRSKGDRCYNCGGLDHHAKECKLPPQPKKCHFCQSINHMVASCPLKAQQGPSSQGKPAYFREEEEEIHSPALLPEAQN
Protocol: (§2) FIG. 9. Domain mapping and structural analysis of Lin28 protein, Related to FIG. 2. (A) EMSA of Lin28 truncations. […] Full-length preE-let-7d was used as probe, titrated with protein constructs indicated (left to right: 8 nM, 33 nM, 130 nM, 520 nM, 2.1 μM, 8.3 μM, 33.3 μM). (B) ¹⁵N-NOESY of the linker region. Homonuclear 1H/1H NOE spectral strips belonging to the residue numbers marked in red were taken from a 3D 15N-selected NOESY-HSQC, and only the amide region is shown for inter-residue backbone NOEs. Diagonal peaks are marked with a diagonal line and crosspeaks are marked with a cross. The linker region is missing inter-residue NOEs, while CCHC has amide-amide interactions evident from crosspeaks. (C) Plot of secondary shifts for Ca, CP, and C′ vs. residue number. Domain boundaries, consistent as in FIG. 2A, are marked with dashed grey lines. (D) EMSA of protein linker deletion constructs. Increasing amounts of protein (Lin28 35-187, with or without 9-residue internal deletion in the linker region) were added to radioactively labeled fragment of pre-let-7f-1 indicated. The concentrations of protein in each lane are as follows: 5 nM, 20 nM, 78 nM, 313 nM, 1.2 μM, 5 μM, 20 μM. (E) In vivo processing assay of pri-miR-122 and pri-miR-16, similar to main FIG. 2D. 293T cells (12 well) were co-transfected with Lin28 (100 ng) with pri-miR-122 or pri-miR-15-16 (750 ng). […]

[6] = biological target: T2, Lin28a (16-184), CSD-linker-CCHCx2; assay: EMSA; comparable affinity to full-length; Kd bins only in figure; 20 mM Tris 7.5, 100 mM NaCl, 50 uM ZnCl2, yeast tRNA; details: tags: His6 removed by TEV (GSG remnant); label: 5'-32P; stem-loop with 3' single-stranded GGAG
Protocol: as §2

[7] = biological target: T1, Lin28a delta-delta (terminal …); assay: structure; crystal structure 2.0 A, Zn; details: tags: His6 removed by TEV; domain-swapped dimer in crystal); stem-loop with 3' single-stranded GGAG
Protocol: as §1

GUGGGGUAGUGAUUUUACCCUGUUUAGGAGAU (ssRNA) [preE-let-7f-1]: binds [1].

GGGCAGAGAUUUUGCCCGGAG (ssRNA) [preEM-let-7d]: binds [2]; binds [3]; binds (Lin28a). GGGCAGAGAUUUUGCCCGGAG (ssRNA) [preEM-let-7d]: binds (Lin28b).

GGGGUAGUGAUUUUACCCUGGAG (ssRNA) [preEM-let-7f-1]: binds [4].

UUAGGGCAGAGAUUUUGCCCACAAGGAGUU (ssRNA) [preE-let-7d]: binds [5]; binds (Lin28a full-length); binds [6].

GGGGUCUAUGAUACCACCCCGGAG (ssRNA) [preEM-let-7g]: binds [7].
